# Measurements from article PMC6550315.
# Read-outs that look alike come from different tables or passages of the source.
# Assays:
# [1] = target: Kif7DM (dimeric, non GFP-tagged Kif7, aa. 1–543), held on an anti-penta-HIS biosensor (human) (UniProt Q2M1P5); assay: BLI
# [2] = target: Kif7DM (dimeric, non GFP-tagged Kif7, aa. 1–543), held on an anti-penta-HIS biosensor (human) (UniProt Q2M1P5); assay: BLI; remark: listed apart in the source
# [3] = target: Kif7DM (dimeric, non GFP-tagged Kif7, aa. 1–543), held on an anti-penta-HIS biosensor (human) (UniProt Q2M1P5); assay: BLI; remark: listed apart in the source
# [4] = target: GTP-polymerized Taxol-stabilized microtubules (bovine tubulin) (bovine) (UniProt Q6B856); assay: co-sedimentation
# [5] = target: GMPCPP-stabilized microtubules (GMPCPP-bound microtubule seeds) (bovine (lab-purified from bovine brain; Cytoskeleton tubulin used interchangeably)) (UniProt Q6B856); assay: TIRF microscopy
# [6] = target: GTPγS microtubule segment (bovine (lab-purified from bovine brain; Cytoskeleton tubulin used interchangeably)) (UniProt Q6B856); assay: TIRF microscopy
# [7] = target: GMPCPP-stabilized microtubules (GMPCPP-bound microtubule seeds) (bovine (lab-purified from bovine brain; Cytoskeleton tubulin used interchangeably)) (UniProt Q6B856); assay: TIRF microscopy; remark: listed apart in the source
# [8] = target: GDP-tubulin microtubule segment (GTP►GDP growth) (bovine (lab-purified from bovine brain; Cytoskeleton tubulin used interchangeably)) (UniProt Q6B856); assay: TIRF microscopy
# [9] = target: GMPCPP+GDP microtubule cap (bovine (lab-purified from bovine brain; Cytoskeleton tubulin used interchangeably)) (UniProt Q6B856); assay: TIRF microscopy
# [10] = target: GMPCPP-stabilized microtubules (GMPCPP-bound microtubule seeds) (bovine (lab-purified from bovine brain; Cytoskeleton tubulin used interchangeably)) (UniProt Q6B856); assay: TIRF microscopy; remark: listed apart in the source
# [11] = target: GDP-tubulin microtubule segment (GTP►GDP growth) (bovine (lab-purified from bovine brain; Cytoskeleton tubulin used interchangeably)) (UniProt Q6B856); assay: TIRF microscopy; remark: listed apart in the source
# [12] = target: GMPCPP+GDP microtubule cap (bovine (lab-purified from bovine brain; Cytoskeleton tubulin used interchangeably)) (UniProt Q6B856); assay: TIRF microscopy; remark: listed apart in the source
# [13] = target: GMPCPP-stabilized microtubules (GMPCPP-bound microtubule seeds) (bovine (lab-purified from bovine brain; Cytoskeleton tubulin used interchangeably)) (UniProt Q6B856); assay: TIRF microscopy; remark: listed apart in the source
# [14] = target: GDP-tubulin microtubule segment (GTP►GDP growth) (bovine (lab-purified from bovine brain; Cytoskeleton tubulin used interchangeably)) (UniProt Q6B856); assay: TIRF microscopy; remark: listed apart in the source
# [15] = target: GMPCPP+GDP microtubule cap (bovine (lab-purified from bovine brain; Cytoskeleton tubulin used interchangeably)) (UniProt Q6B856); assay: TIRF microscopy; remark: listed apart in the source
# [16] = target: GTP-polymerized Taxol-stabilized microtubules (bovine tubulin) (bovine) (UniProt Q6B856); assay: co-sedimentation; remark: listed apart in the source
# [17] = target: GTP-polymerized Taxol-stabilized microtubules (bovine tubulin) (bovine) (UniProt Q6B856); assay: co-sedimentation; remark: listed apart in the source
# [18] = target: GMPCPP-stabilized microtubules (GMPCPP-bound microtubule seeds) (bovine (lab-purified from bovine brain; Cytoskeleton tubulin used interchangeably)) (UniProt Q6B856); assay: TIRF microscopy; remark: listed apart in the source
# [19] = target: GMPCPP-stabilized microtubules (GMPCPP-bound microtubule seeds) (bovine (lab-purified from bovine brain; Cytoskeleton tubulin used interchangeably)) (UniProt Q6B856); assay: TIRF microscopy; remark: listed apart in the source
# [20] = target: GDP-tubulin microtubule segment (GTP►GDP growth) (bovine (lab-purified from bovine brain; Cytoskeleton tubulin used interchangeably)) (UniProt Q6B856); assay: TIRF microscopy; remark: listed apart in the source
# [21] = target: GMPCPP+GDP microtubule cap (bovine (lab-purified from bovine brain; Cytoskeleton tubulin used interchangeably)) (UniProt Q6B856); assay: TIRF microscopy; remark: listed apart in the source
# [22] = target: GTP-polymerized Taxol-stabilized microtubules (bovine tubulin) (bovine) (UniProt Q6B856); assay: co-sedimentation; remark: listed apart in the source
molecule,measurement,setting,value
soluble tubulin (α-β-tubulin heterodimer) (from UniProt Q6B856 1-445) (complex),Kd,[1],4980 nM
same,Kd,[2],8100 nM
same,Kd,[3],1640 nM
Kif7_(DM-L8)^KHC-GFP (Kif7 1–543 with loop L8 replaced by kinesin-1 L8) (from UniProt Q2M1P5 1-543) (domain or fragment),Kd,[4],850 nM
"Kif7DM-GFP (dimeric Kif7, aa. 1–543, C-terminal GFP) (domain or fragment) MGLEAQRLPGAEEAPVRVALRVRPLLPKELLHGHQSCLQVEPGLGRVTLGRDRHFGFHVVLAEDAGQEAVYQACVQPLLEAFFEGFNATVFAYGQTGSGKTYTMGEASVASLLEDEQGIVPRAMAEAFKLIDENDLLDCLVHVSYLEVYKEEFRDLLEVGTASRDIQLREDERGNVVLCGVKEVDVEGLDEVLSLLEMGNAARHTGATHLNHLSSRSHTVFTVTLEQRGRAPSRLPRPAPGQLLVSKFHFVDLAGSERVLKTGSTGERLKESIQINSSLLALGNVISALGDPQRRGSHIPYRDSKITRILKDSLGGNAKTVMIACVSPSSSDFDETLNTLNYASRAQNIRNRATVNWRPEAERPPEETASGARGPPRHRSETRIIHRGRRAPGPATASAAAAMRLGAECARYRACTDAAYSLLRELQAEPGLPGAAARKVRDWLCAVEGERSALSSASGPDSGIESASVEDQAAQGAGGRKEDEGAQQLLTLQNQVARLEEENRDFLAALEDAMEQYKLQSDRLREQQEEMVELRLRLELVRP","GFP fluorescence intensity at curvature |κ0|, 10 nM Kif7DM-GFP",[5],164
same,"GFP fluorescence intensity at curvature |κ0|, 50 nM Kif7DM-GFP",[5],278
same,"GFP fluorescence intensity at curvature |κ1|, 10 nM Kif7DM-GFP",[5],168
same,"GFP fluorescence intensity at curvature |κ1|, 50 nM Kif7DM-GFP",[5],285
same,"GFP fluorescence intensity at curvature |κ2|, 10 nM Kif7DM-GFP",[5],168
same,"GFP fluorescence intensity at curvature |κ2|, 50 nM Kif7DM-GFP",[5],280
same,"GFP fluorescence intensity at curvature |κ3|, 10 nM Kif7DM-GFP",[5],164
same,"GFP fluorescence intensity at curvature |κ3|, 50 nM Kif7DM-GFP",[5],283
same,GFP fluorescence intensity per pixel,[5],218
same,GFP fluorescence intensity per pixel,[6],511
same,GFP fluorescence intensity per pixel,[7],53
same,GFP fluorescence intensity per pixel,[8],8.6
same,GFP fluorescence intensity per pixel,[9],37.1
same,GFP fluorescence intensity per pixel,[10],592
same,GFP fluorescence intensity per pixel,[11],208
same,GFP fluorescence intensity per pixel,[12],338
same,GFP fluorescence intensity per pixel,[13],693
same,GFP fluorescence intensity per pixel,[14],216
same,GFP fluorescence intensity per pixel,[15],401
same,Kd,[16],810 nM
same,Kd,[17],780 nM
same,Kd,[4],540 nM
same,GFP fluorescence intensity per pixel,[18],836
same,GFP fluorescence intensity per pixel,[19],202
same,GFP fluorescence intensity per pixel,[20],14.1
same,GFP fluorescence intensity per pixel,[21],80.8
same,Kd,[22],430 nM
